Data on 30 substances can be found in US11306156.

Assay [1] deals with tissue factor (TF) antigen (UniProt P13726). As to the kind of experiment: SPR, Fab captured on anti-penta His, TF injected. Background: SPR reads the build-up and loss of mass on a sensor chip optically.
The target is the same in assay [2]. Kind of assay: SPR KD against wild-type D3H44 Fab (reference KD 0.157 nM).
For assay [3] the target is unchanged. As to the kind of experiment: SPR (ProteOn), Fab captured on anti-penta-His, TF analyte, 1:1 fit.
For assay [4] the target is unchanged. As to the kind of experiment: SPR, Fab captured on anti-penta His surface, TF as analyte, 1:1 fit.

Chain of tissue factor (TF) antigen (P13726 33-251 limits assumed): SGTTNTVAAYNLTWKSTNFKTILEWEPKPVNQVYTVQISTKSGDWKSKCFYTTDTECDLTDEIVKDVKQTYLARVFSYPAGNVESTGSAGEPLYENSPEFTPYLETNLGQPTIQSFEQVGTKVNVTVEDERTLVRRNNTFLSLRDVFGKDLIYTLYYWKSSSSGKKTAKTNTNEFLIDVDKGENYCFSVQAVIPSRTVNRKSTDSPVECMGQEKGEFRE

In assay [1], “D3H44 Fab heterodimer H L124E_L143D_K145M / L Q124K_V133G_S176R_T178K (H1L1 Fab of LCCA Set # 9178, 9179)” returned a Change in KD with respect to wild type (-(log(KD design) - log(KD wt))) of -0.15 and a Kd of 220 pM.
The substance “D3H44 Fab heterodimer, H: S186K, L: Q124E_T178E (H1L1 Fab of LCCA set 9850)” had a Change in KD with respect to wild type (-(log(KD design) - log(KD wt))) in assay [2] of 0.01. The substance also gave a Kd in assay [3] of 150 pM.
The substance “D3H44 Fab heterodimer, H: L124W_L143F_K145T_Q179E, L: S131K_V133A_S176T_T178L (H1L1 Fab of LCCA sets 9571 and 9572)” returned a Change in KD with respect to wild type (-(log(KD design) - log(KD wt))) in assay [2] of -0.21. The substance also gave a Kd in assay [3] of 260 pM.
In assay [1], “D3H44 Fab heterodimer H L124E_L143E_K145M / L Q124K_V133G_S176R_T178R (H1L1 Fab of LCCA Set # 9270)” came in with a Change in KD with respect to wild type (-(log(KD design) - log(KD wt))) of -0.29 and a Kd of 310 pM.
As to “D3H44 Fab heterodimer, H: L143E_K145T_Q179E, L: Q124K_T178R (H1L1 Fab of LCCA set 9648)”, in assay [2], the Change in KD with respect to wild type (-(log(KD design) - log(KD wt))) worked out at 0.05. The same substance returned a Kd in assay [3] of 140 pM.
On to “D3H44 Fab heterodimer H L124R_D146N_Q179K / L V133G_S176D_T178E_T180E (H1L1 Fab of LCCA Set # 9359)”, for which, in assay [1], the Change in KD with respect to wild type (-(log(KD design) - log(KD wt))) was -0.01 and the Kd was found to be 160 pM.
For “D3H44 Fab heterodimer, H: Q179K, L: Q124E_T180E (H1L1 Fab of LCCA sets 9787, 9792 and 9794)”, the Change in KD with respect to wild type (-(log(KD design) - log(KD wt))) in assay [2] was determined as 0.16. In assay [3], the Kd was 110 pM.
For “D3H44 Fab heterodimer H L124R_S186K / L Q124E_V133G_S176D_T178D_T180E (H1L1 Fab of LCCA Set # 9461)”, in assay [1], the Change in KD with respect to wild type (-(log(KD design) - log(KD wt))) was -0.23 and the Kd was determined as 260 pM.
The substance “D3H44 Fab heterodimer, H: L143R, L: Q124E_V133E (H1L1 Fab of LCCA set 9740)” showed a Change in KD with respect to wild type (-(log(KD design) - log(KD wt))) in assay [2] of -0.09. The Kd in assay [3] worked out at 200 pM.
On the same counts, the results for “D3H44 Fab heterodimer, H: Q179K, L: Q124E_T178E_T180E (H1L1 Fab of LCCA set 9786)” are 0.1 and 130 pM.
“D3H44 Fab heterodimer, H: Q179K, L: Q124E_T178E (H1L1 Fab of LCCA set 9784)” returned a Change in KD with respect to wild type (-(log(KD design) - log(KD wt))) in assay [2] of 0.05. Further, the Kd in assay [3] was 140 pM.
“D3H44 Fab heterodimer, H: Q179K, L: Q124E_Q160E_T178E (H1L1 Fab of LCCA set 9758)” showed a Change in KD with respect to wild type (-(log(KD design) - log(KD wt))) in assay [2] of -0.27. For the same substance, the Kd in assay [3] was 290 pM.
“D3H44 Fab heterodimer, H: L143E_K145T_Q179E, L: Q124R_T178K (H1L1 Fab of LCCA set 9660)”: in assay [2], the Change in KD with respect to wild type (-(log(KD design) - log(KD wt))) was -0.08. For the same substance, the Kd in assay [3] came out at 190 pM.
The substance “D3H44 Fab heterodimer, H: S186R, L: Q124E_T180E (H1L1 Fab of LCCA sets 9891, 9893, 9896 and 9898)” gave a Change in KD with respect to wild type (-(log(KD design) - log(KD wt))) in assay [2] of 0.36. The Kd in assay [3] came out at 70 pM.
In assay [2], “D3H44 Fab heterodimer, H: S186K, L: Q124E_Q160E_T180E (H1L1 Fab of LCCA set 9838)” had a Change in KD with respect to wild type (-(log(KD design) - log(KD wt))) of 0.09. Besides, the Kd in assay [3] came out at 130 pM.
“D3H44 Fab heterodimer, H: S186K, L: Q124E_T178E_T180E (H1L1 Fab of LCCA set 9852)” returned a Change in KD with respect to wild type (-(log(KD design) - log(KD wt))) in assay [2] of 0.02. In addition, in assay [3], the Kd came out at 150 pM.
The substance “D3H44 Fab heterodimer, H: S186R, L: Q124E_T178E_T180E (H1L1 Fab of LCCA set 9890)” displayed a Change in KD with respect to wild type (-(log(KD design) - log(KD wt))) in assay [2] of 0.49. The same substance returned a Kd in assay [3] of 50 pM.
In assay [1], “D3H44 Fab heterodimer H L124E_H172T / L V133G_N137K_S174R_S176R (H1L1 Fab of LCCA Set # 9121)” showed a Change in KD with respect to wild type (-(log(KD design) - log(KD wt))) of 0.08 and a Kd of 130 pM.
As for “D3H44 Fab heterodimer H L124R_Q179K / L V133G_S176D_T178E_T180E (H1L1 Fab of LCCA Set # 9426)”, in assay [1], the Change in KD with respect to wild type (-(log(KD design) - log(KD wt))) is -0.16 and the dissociation constant (Kd) came to 230 pM.
The matching figures for “D3H44 Fab heterodimer H L124E_L143D_K145M / L Q124K_V133G_Q160K_S176R (H1L1 Fab of LCCA Set # 9170)”: -0.24 and 270 pM.
In assay [1], “D3H44 Fab heterodimer H L124R_S186K / L V133G_S176D_T178E_T180E (H1L1 Fab of LCCA Set # 9489)” yielded a Change in KD with respect to wild type (-(log(KD design) - log(KD wt))) of -0.17 and a Kd of 230 pM.
On the same counts, the results for “D3H44 Fab heterodimer H L124R_D146N_Q179K / L Q124E_V133G_S176D_T178E_T180E (H1L1 Fab of LCCA Set # 9350, 9351)” are -0.1 and 200 pM.
“D3H44 Fab heterodimer H L124E_L143D_K145T / L Q124K_V133G_S176R_T178K (H1L1 Fab of LCCA Set # 9220, 9216)”: in assay [1], the Change in KD with respect to wild type (-(log(KD design) - log(KD wt))) is -0.08 and the Kd came to 190 pM.
On to “D3H44 Fab heterodimer, H1L1 of LCCA Set # 9822 (H1 Q39R_D146G_Q179K; L1 Q38E_Q124E_Q160E_T180E)”, for which, in assay [4], the Change in KD with respect to wild type (-(log(KD design) - log(KD wt))) is 0.17 and the equilibrium dissociation constant (Kd) is 110 pM.
In the case of “D3H44 Fab heterodimer H L124E_L143D_K145T / L Q124K_V133G_S176R_T178R (H1L1 Fab of LCCA Set # 9229, 9225, 9228)”, in assay [1], the Change in KD with respect to wild type (-(log(KD design) - log(KD wt))) is -0.02 and the Kd came out at 160 pM.
In assay [1], “D3H44 Fab heterodimer H L124R_Q179K / L Q124E_V133G_S176D_T178E_T180E (H1L1 Fab of LCCA Set # 9384, 9388)” came in with a Change in KD with respect to wild type (-(log(KD design) - log(KD wt))) of -0.15 and a Kd of 220 pM.
As to “D3H44 Fab heterodimer, H1L1 of LCCA Set # 9819 (H1 Q39E_L143E_K145T_H172R_Q179E; L1 Q38R_Q124R_Q160K_T178R)”, in assay [4], the Change in KD with respect to wild type (-(log(KD design) - log(KD wt))) stood at 0.03 and the dissociation constant (Kd) was 150 pM.
For the substance “D3H44 Fab heterodimer H L124R_S186K / L V133G_S176D_T178D_T180E (H1L1 Fab of LCCA Set # 9473)”, in assay [1], the Change in KD with respect to wild type (-(log(KD design) - log(KD wt))) is -0.07 and the Kd stood at 180 pM.
In assay [1], “D3H44 Fab heterodimer H L124E_L143E_K145M / L Q124K_V133G_Q160K_S176R (H1L1 Fab of LCCA Set # 9247)” came in with a Change in KD with respect to wild type (-(log(KD design) - log(KD wt))) of -0.26 and a Kd of 280 pM.
Consider “D3H44 Fab heterodimer H L124E_L143E_K145T / L Q124K_V133G_Q160K_S176R (H1L1 Fab of LCCA Set # 9275)”, for which, in assay [1], the Change in KD with respect to wild type (-(log(KD design) - log(KD wt))) is -0.12 and the Kd was 200 pM.

What is called Kd is the constant that tells how readily two partners part at equilibrium.
